Assay in all cases: cell_activity
Series [1] has as its system ZFA36-ND4 (Artificial (ND4 from Clostridiales bacterium)).
Series [2] relates to ZFA36-ND3 (Artificial (ND3 from Clostridium sp. 7_2_43FAA)).
Series [3] has as its system ZFA36-ND1 (Artificial (ND1 from Bacillus sp. SGD-V-76)).
The test system of series [4] is ZFA36-FokI-Sharkey (Artificial). The conditions noted are these: SSA reporter HEK293T.
Series [5] has as its system ZFA36-FokI (FokI-ND ZFN) (Artificial).
Series [6] deals with TALE-ROSA26-FokI right (Artificial). The conditions noted are these: SSA reporter pair with left TALEN, close to reference.
The test system of series [7] is TALE-ROSA26-ND1 right (Artificial). The conditions noted are these: SSA reporter pair with left TALEN.
A further series relates to ZFL1-ND1 (Artificial). As to conditions: SSA, ZFL1-ND1 alone.
ZFL1-ND1 (Artificial), sequence (chain, as listed by the source): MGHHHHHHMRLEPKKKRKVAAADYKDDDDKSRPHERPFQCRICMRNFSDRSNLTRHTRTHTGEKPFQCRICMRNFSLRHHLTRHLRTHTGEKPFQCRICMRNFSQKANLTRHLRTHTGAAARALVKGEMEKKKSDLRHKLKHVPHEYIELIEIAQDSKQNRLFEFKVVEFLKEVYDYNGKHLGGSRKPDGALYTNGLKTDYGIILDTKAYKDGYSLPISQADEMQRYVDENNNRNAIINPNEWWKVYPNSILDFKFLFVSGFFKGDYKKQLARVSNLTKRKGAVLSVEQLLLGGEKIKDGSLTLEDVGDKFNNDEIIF
For series [8], the system named is TALE-HPRT1-ND1 right (Artificial). As to conditions: SSA reporter pair with left TALEN.
In series [9] the test system is TALE-HPRT1-FokI right (Artificial). The conditions noted are these: SSA reporter pair with left TALEN.
Series [10] concerns TALE-HPRT1-FokI left (Artificial). As to conditions: SSA reporter pair with right TALEN.
Series [11] concerns TALE-HPRT1-ND1 left (Artificial). The conditions noted are these: SSA reporter pair with right TALEN.
The test system of series [12] is TALE-ROSA26-ND1 left (Artificial). The conditions noted are these: SSA reporter pair with right TALEN.
For series [13], the system named is TALE-ROSA26-FokI left (Artificial). The conditions noted are these: SSA reporter pair with right TALEN, close to reference.

Here are results for eight sequences from patent publication US20210332339.

ZFA36-FokI (FokI-ND ZFN) (Artificial), sequence (chain, as listed by the source): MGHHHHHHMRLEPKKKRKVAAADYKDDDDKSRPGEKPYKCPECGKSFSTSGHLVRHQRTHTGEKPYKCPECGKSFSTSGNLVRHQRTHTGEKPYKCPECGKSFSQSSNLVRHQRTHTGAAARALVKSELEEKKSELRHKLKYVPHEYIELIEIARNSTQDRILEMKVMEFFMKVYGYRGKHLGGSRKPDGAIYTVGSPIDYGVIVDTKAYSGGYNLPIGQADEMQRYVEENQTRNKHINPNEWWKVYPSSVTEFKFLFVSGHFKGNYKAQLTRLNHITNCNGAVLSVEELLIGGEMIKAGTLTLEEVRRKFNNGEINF
ZFA36-FokI-Sharkey (Artificial), sequence (chain, as listed by the source): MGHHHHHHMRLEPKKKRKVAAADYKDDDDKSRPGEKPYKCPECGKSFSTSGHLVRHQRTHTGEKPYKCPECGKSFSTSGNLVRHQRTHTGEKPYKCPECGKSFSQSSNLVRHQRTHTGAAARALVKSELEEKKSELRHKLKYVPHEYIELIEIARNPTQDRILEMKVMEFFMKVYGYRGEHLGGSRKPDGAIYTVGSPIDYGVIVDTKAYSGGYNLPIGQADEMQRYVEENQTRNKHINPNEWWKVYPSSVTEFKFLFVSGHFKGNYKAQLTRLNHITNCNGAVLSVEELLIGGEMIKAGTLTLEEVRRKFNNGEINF

Turning to “ACCATCTTCAAGAGAGAAGATGGC (double strand) [ZFA36-ZFA36 CHO-K1 2nd site]”, the activity (% mutated clones) in [1] (CHO-K1, 0/14) turned out to be 0; in series [2] (CHO-K1, 3/16) it was 18.8.
For the sequence “ACCATCTTCCACTCTGAAGATGGA (double strand) [ZFA36-ZFA36 CHO-K1 1st site]”, the activity (% mutated clones) in [1] (CHO-K1, 0/16, no cleavage detected) worked out at 0; in series [2] (CHO-K1, 0/15, Cel-I about 25-45% of FokI depending on site), 0.
For the sequence “ACCATCTTCNNNNNNGAAGATGGT (double strand) [ZFA36-6bp-ZFA36 site]”, the binding signal (fold of ZFA36-FokI) is 0.2 in series [1] (SSA reporter HEK293T), 0.2 in [2] (SSA reporter HEK293T), greater than 1.2 in [3] (SSA reporter HEK293T) and 1.5 in [4]. In [5] (SSA reporter HEK293T, reference), this sequence gave a binding signal of 1.
Regarding “GCCTCGACTTGCAGATCA (double strand) [ROSA26 right half-site (top strand)]”, the binding signal (fold of ZFA36-FokI) in [6] worked out at 1. Moreover, in series [7], the binding signal (fold of TALE-ROSA26-FokI) was 2.
With “GTCACCTTCNNNNNNGAAGATGGT (double strand) [ZFL1-6bp-ZFA36 site]”, the binding signal in the series on ZFL1-ND1 (Artificial) came out at 40%; in [3] (SSA, ZFA36-ND1 alone), 90%; in series [5] (SSA, ZFA36-FokI alone), 35%.
On to “TCCTAATCACTATGTCGA (double strand) [HPRT1 right half-site (top strand)]”, for which, in series [8], the binding signal (fold of TALE-HPRT1-FokI) amounted to 2. Further, the binding signal (fold of ZFA36-FokI) in series [9] was 0.5.
Take “TGAACCAGGCTATGACCT (double strand) [HPRT1 left half-site]”: the binding signal (fold of ZFA36-FokI) in series [10] came out at 0.5. Besides, in [11], the binding signal (fold of TALE-HPRT1-FokI) was 2.
As to “TGCCCAGAAGACTCCCG (double strand) [ROSA26 left half-site]”, in series [12], the binding signal (fold of TALE-ROSA26-FokI) stood at 2. The binding signal (fold of ZFA36-FokI) in series [13] turned out to be 1.
